# Experimental data from publication PMC4453921, “Crystal structure of caspase recruiting domain (CARD) of apoptosis repressor with CARD (ARC) and its implication in inhibition of apoptosis” (Scientific Reports, 2015).
# B1: ARC CARD domain (amino acids 1-95), wild type [human] / itself (parent)
# chain: MGNAQERPSETIDRERKRLVETLQADSGLLLDALLARGVLTGPEYEALDALPDAERRVRRLLLLVQGKGEAACQELLRCAQRTAGAPDPAWDWQH
# Variants of: B1
# Assay: SEC-MALS
# Details: with itself
row,screen value [kDa],Variant
1,12,MGNAQERPSETIDRERKRLVETLQADSGLLLDALLARGVLTGPEYEALDALPDAERRVERLLLLVQGKGEAACQELLRCAQRTAGAPDPAWDWQH [chain 1 R59E]
2,13,MGNAQERPSETIDRERKRLVETLQADSGLLLDALLARGVLTGPEYEALRALPDAERRVRRLLLLVQGKGEAACQELLRCAQRTAGAPDPAWDWQH [chain 1 D49R]
3,13.2,MGNAQERPSETIDRERKRLVETLQADSGLLLDALLARGVLTGPEYEALDALPDAEERVRRLLLLVQGKGEAACQELLRCAQRTAGAPDPAWDWQH [chain 1 R56E]
4,11.8,MGNAQERPSETIDRERKRLVETLQADSGLLLDALLARGVLTGPEYEALDALPDAEERVERLLLLVQGKGEAACQELLRCAQRTAGAPDPAWDWQH [chain 1 R56E R59E]
5,12.8,MGNAQERPSETIDRERKRLVETLQADSGLLLDALLARGVLTGPEYEALRALPDAERRVERLLLLVQGKGEAACQELLRCAQRTAGAPDPAWDWQH [chain 1 D49R R59E]
